Values of other authors in article PMC10404681, “Intrinsic catalytic properties of histone H3 lysine-9 methyltransferases preserve monomethylation levels under low S-adenosylmethionine” (The Journal of Biological Chemistry, 2023).

Biological target: histone H3 peptide (Homo sapiens) (UniProt P68431)

Chain of EHMT1/EHMT2 heterodimer (Q9H9B1 2-1298): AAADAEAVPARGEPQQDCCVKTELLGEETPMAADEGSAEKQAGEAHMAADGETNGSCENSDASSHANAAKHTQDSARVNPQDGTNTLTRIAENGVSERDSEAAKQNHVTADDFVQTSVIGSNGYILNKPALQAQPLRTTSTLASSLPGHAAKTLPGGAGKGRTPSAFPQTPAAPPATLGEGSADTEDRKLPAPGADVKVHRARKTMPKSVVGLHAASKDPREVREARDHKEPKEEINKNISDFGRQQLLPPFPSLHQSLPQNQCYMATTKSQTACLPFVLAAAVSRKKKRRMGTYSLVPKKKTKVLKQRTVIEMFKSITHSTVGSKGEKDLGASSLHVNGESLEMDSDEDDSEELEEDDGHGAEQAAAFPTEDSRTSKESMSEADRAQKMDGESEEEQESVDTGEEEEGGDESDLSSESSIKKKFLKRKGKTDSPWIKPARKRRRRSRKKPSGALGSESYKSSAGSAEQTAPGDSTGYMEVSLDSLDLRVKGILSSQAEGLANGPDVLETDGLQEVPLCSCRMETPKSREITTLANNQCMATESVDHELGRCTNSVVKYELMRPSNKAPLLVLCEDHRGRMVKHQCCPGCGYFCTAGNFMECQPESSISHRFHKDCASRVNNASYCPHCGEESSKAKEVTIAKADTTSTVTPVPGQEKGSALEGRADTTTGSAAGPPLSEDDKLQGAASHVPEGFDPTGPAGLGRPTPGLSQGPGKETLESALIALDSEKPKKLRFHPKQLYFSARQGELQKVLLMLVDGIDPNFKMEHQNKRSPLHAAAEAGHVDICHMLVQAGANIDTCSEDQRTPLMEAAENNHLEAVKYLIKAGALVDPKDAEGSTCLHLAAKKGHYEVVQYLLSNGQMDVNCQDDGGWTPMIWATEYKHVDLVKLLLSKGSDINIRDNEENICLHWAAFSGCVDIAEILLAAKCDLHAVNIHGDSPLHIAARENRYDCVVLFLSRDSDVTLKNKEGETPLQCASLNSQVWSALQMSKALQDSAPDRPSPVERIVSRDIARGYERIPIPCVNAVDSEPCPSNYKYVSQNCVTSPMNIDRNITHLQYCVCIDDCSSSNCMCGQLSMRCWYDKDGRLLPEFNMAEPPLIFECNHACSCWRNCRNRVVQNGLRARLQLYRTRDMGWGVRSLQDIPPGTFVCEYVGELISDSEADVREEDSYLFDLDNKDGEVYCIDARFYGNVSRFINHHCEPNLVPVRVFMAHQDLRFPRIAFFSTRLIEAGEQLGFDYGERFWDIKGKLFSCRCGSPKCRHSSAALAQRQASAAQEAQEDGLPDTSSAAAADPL
Chain of EHMT1/EHMT2 heterodimer (Q96KQ7 2-1210, further chain): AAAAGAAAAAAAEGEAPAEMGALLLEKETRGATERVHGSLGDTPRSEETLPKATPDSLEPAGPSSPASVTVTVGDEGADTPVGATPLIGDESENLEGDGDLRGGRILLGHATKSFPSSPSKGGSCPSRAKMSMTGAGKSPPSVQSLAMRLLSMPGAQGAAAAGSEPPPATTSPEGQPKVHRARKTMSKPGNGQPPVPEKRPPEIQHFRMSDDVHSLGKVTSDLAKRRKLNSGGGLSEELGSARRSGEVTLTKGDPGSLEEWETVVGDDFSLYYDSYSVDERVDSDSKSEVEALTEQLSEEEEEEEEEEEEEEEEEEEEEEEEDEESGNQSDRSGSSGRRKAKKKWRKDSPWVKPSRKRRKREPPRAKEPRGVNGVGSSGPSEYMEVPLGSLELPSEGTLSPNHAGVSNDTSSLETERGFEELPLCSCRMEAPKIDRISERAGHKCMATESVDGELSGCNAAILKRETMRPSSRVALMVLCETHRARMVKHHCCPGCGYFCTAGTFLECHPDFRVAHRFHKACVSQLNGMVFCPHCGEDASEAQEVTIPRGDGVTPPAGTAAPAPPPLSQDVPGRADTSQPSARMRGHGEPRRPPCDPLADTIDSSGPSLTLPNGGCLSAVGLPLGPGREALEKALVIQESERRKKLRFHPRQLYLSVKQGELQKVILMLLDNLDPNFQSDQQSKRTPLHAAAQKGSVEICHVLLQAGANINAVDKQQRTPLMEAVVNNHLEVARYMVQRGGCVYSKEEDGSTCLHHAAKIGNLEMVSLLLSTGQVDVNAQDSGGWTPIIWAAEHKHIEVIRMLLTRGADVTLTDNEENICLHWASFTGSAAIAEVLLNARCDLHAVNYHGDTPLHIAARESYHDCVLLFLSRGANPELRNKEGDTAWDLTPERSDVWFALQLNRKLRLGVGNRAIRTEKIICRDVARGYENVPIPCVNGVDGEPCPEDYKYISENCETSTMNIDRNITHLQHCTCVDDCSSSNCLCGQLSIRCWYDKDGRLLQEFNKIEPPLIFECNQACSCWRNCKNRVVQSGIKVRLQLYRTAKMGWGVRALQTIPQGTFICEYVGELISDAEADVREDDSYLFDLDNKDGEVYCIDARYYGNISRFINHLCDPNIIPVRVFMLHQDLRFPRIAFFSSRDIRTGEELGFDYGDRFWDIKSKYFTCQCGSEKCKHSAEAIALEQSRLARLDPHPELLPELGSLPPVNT

Kd: 7.35 µM
Substance: EHMT1/EHMT2 heterodimer (from UniProt Q9H9B1)
